# Measurements taken from PMC7347655, “Mutational analysis of the essential lipopolysaccharide-transport protein LptH of Pseudomonas aeruginosa to uncover critical oligomerization sites” (Scientific Reports, 2020).
# Residue numbers refer to the chain shown, from its start.
# B1: LptH_β15del (natural protein)
# chain: LPSDREQPIRVQADSAELDDKQGVAVYRGDVVVTQGSTKLTGNTVTLKQDKNGDIEVVTSVGKPAYYEQKPAPDKDVTKAYGLTIQYFVTQNRVVLIDQAKVIQEGNTFEGEKIVYDTQRQIGRATGSQVTSPRPRIDMVIQPKKKAQ
# notes: As m1 with a 3-residue deletion in strand β15; aggregation prevented concentrations above 0.9 mg/mL; not shown: His6, N-terminal, kept
# B2: wild-type LptH (natural protein, Pseudomonas aeruginosa, UniProt Q9HVV7 25-175, looked up)
# chain: LPSDREQPIRVQADSAELDDKQGVAVYRGDVVVTQGSTKLTGNTVTLKQDKNGDIEVVTSVGKPAYYEQKPAPDKDVTKAYGLTIQYFVTQNRVVLIDQAKVIQEGNTFEGEKIVYDTQRQIVNAGRATGSQVTSPRPRIDMVIQPKKKAQ
# notes: Cloned NdeI/HindIII into pET28b; the vector's linker between the His tag and the protein is not described; no tag removal is described; also called LptH6His; PA4460; not shown: His6, N-terminal, kept
# B3: LptH_β15mut (natural protein)
# chain: B2 chain with V123E, N124P, A125D
# notes: not shown: His6, N-terminal, kept
# Biological target: the molecule itself
# Assay: SEC; 100 uL of purified protein (0.9-2.0 mg/mL, a stated concentration for each variant) on a TSK-GEL G3000PWXL column, 20 mM Tris-HCl pH 8.0, 250 mM NaCl, 0.7 mL/min, detection at 280 nm; oligomerization state estimated from the apparent MW by a calibration curve
row,Protein,stoichiometry N
1,B1,2
2,B2,2
3,B3,2
